Test results published in patent US20230406935A1 (F STAR THERAPEUTICS, published 2023).
Numbering of substitutions follows the chain as printed. Each block holds one binder with its values, some of them ahead of it.

What was measured:
[1] = target: T1, Human PD-L1 expressed on cells (human, UniProt Q9NZQ7 19-290); assay: cell-based or functional assay
[2] = target: T1, Human PD-L1 expressed on cells; assay: flow cytometry, HEK293 cells overexpressing the target, anti-human Fc 488
Procedure: (§1) Cell binding assays were performed by incubating Fcabs or mAb² proteins with either control HEK293 cells or HEK293 cells overexpressing hPD-L1 or cynomolgus PD-L1 cells for 1 hour at 4° C. Fcab/mAb binding was subsequently detected using an anti-human Fc 488 detection antibody. Fluorescent signal intensities were measured using a FACS canto.

[3] = target: T2, Cynomolgus PD-L1 expressed on HEK 293 cells (cynomolgus, UniProt Q9NZQ7 19-290 (human entry)); assay: as above
T2 construct: also called cell-expressed cynomolgus PD-L1
Procedure: as §1

[4] = target: T1, Human PD-L1 expressed on cells; assay: cell-based or functional assay; remark: listed apart in the source
[5] = target: T3, Monomeric His-tagged human PD-L1 (Acro biosystems PD1-H5229) (human, UniProt Q9NZQ7 19-238); assay: off-rate on PD-L1, mock mAb^2; instrument not given
T3 construct: also called hPD-L1-his; PD-L1-his

[6] = target: T3, Monomeric His-tagged human PD-L1 (Acro …); assay: off-rate, binding to hPD-L1, mock mAb^2; instrument not stated

T3 sequence (Q9NZQ7 19-238 limits assumed): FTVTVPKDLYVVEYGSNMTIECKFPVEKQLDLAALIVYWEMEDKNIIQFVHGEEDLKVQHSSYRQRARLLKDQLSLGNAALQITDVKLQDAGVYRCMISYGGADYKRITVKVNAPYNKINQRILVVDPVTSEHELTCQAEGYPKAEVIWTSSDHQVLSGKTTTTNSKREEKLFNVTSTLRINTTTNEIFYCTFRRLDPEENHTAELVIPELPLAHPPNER
T1 sequence (Q9NZQ7 19-290 limits assumed): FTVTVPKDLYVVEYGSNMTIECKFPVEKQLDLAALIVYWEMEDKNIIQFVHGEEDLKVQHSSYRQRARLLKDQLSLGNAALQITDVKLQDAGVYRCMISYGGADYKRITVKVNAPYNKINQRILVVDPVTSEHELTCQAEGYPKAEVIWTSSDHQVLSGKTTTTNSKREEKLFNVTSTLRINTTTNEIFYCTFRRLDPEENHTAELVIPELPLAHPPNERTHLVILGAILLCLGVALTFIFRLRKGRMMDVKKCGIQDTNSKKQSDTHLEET
T2 sequence (Q9NZQ7 other isoform, or with tags, fused parts or gaps limits assumed): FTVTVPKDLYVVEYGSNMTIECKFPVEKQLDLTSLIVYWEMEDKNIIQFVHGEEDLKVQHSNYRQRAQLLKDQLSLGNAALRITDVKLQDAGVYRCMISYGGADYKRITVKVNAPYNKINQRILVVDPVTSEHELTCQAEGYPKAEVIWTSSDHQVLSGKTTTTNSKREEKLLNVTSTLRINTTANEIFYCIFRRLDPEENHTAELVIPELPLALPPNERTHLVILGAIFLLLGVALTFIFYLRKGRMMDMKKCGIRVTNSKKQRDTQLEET

B1: FS17-33-289AA/HelD1.3 mock mAb^2 (bispecific antibody, human IgG1, kappa, L234A L235A)
heavy: QVQLQESGPGLVRPSQTLSLTCTVSGSTFSGYGVNWVRQPPGRGLEWIGMIWGDGNTDYNSALKSRVTMLVDTSKNQFSLRLSSVTAADTAVYYCARERDYRLDYWGQGSLVTVSSASTKGPSVFPLAPSSKSTSGGTAALGCLVKDYFPEPVTVSWNSGALTSGVHTFPAVLQSSGLYSLSSVVTVPSSSLGTQTYICNVNHKPSNTKVDKKVEPKSCDKTHTCPPCPAPEAAGGPSVFLFPPKPKDTLMISRTPEVTCVVVDVSHEDPEVKFNWYVDGVEVHNAKTKPREEQYNSTYRVVSVLTVLHQDWLNGKEYKCKVSNKALPAPIEKTISKAKGQPREPQVYTLPPSRDESGYWVSLTCLVKGFYPSDIVVEWESNGEPQYWAKTTPPVLDSDGSFFLYSKLTVSNWRWQLDDFSCSVMHEALHNHYTQKSLSLSPGK
light: DIQMTQSPASLSASVGETVTITCRASGNIHNYLAWYQQKQGKSPQLLVYNAKTLADGVPSRFSGSGSGTQYSLKINSLQPEDFGSYYCQHFWSTPRTFGGGTKLEIKRTVAAPSVFIFPPSDEQLKSGTASVVCLLNNFYPREAKVQWKVDNALQSGNSQESVTEQDSKDSTYSLSSTLTLSKADYEKHKVYACEVTHQGLSSPVTKSFNRGEC
notes: also called F17-33-289AA/HelD1.3; F17-33-289AA/HELD1.3
- DO11.10 T cell activation assay EC50 [1]: 1.55 nM
- Kd [2]: 3.9 nM
- Kd [3]: 2.2 nM

B3: FS17-33-239AA/HELD1.3 (bispecific antibody)
chain 1: B1 heavy with V376A, N412Q
chain 2: B1 light
- DO11.10 EC50 [4]: 0.588 nM
- koff [5]: 0.000693 s⁻¹

B5: FS17-33-460AA/HELD1.3 (bispecific antibody)
chain 1: QVQLQESGPGLVRPSQTLSLTCTVSGSTFSGYGVNWVRQPPGRGLEWIGMIWGDGNTDYNSALKSRVTMLVDTSKNQFSLRLSSVTAADTAVYYCARERDYRLDYWGQGSLVTVSSASTKGPSVFPLAPSSKSTSGGTAALGCLVKDYFPEPVTVSWNSGALTSGVHTFPAVLQSSGLYSLSSVVTVPSSSLGTQTYICNVNHKPSNTKVDKKVEPKSCDKTHTCPPCPAPEAAGGPSVFLFPPKPKDTLMISRTPEVTCVVVDVSHEDPEVKFNWYVDGVEVHNAKTKPREEQYNSTYRVVSVLTVLHQDWLNGKEYKCKVSNKALPAPIEKTISKAKGQPREPQVYTLPPSRDESGYWVSLTCLVKGFYPSDIAVEWESNGEPQYWAKTTPPVLDSDGSFFLYSKLTVSNWRWHLDDVFSCSVMHEALHNHYTQKSLSLSPGK
chain 2: B1 light
- koff [6]: 0.000202 s⁻¹

B6: FS17-33-456AA/HELD1.3 (bispecific antibody)
chain 1: B5 chain 1 with N412A, H416Q
chain 2: B1 light
- koff [6]: 0.000619 s⁻¹

B9: FS17-33-157AA/HELD1.3 (bispecific antibody)
chain 1: B1 heavy with S357E, V376A
chain 2: B1 light
- DO11.10 EC50 [4]: 0.481 nM
- koff [5]: 0.000559 s⁻¹

B15: FS17-33-459AA/HELD1.3 (bispecific antibody)
chain 1: B5 chain 1 with H416R
chain 2: B1 light
- koff [6]: 0.00038 s⁻¹

B17: FS17-33-457AA/HELD1.3 (bispecific antibody)
chain 1: B5 chain 1 with N412Q, H416Q
chain 2: B1 light
- koff [6]: 0.000589 s⁻¹

B20: FS17-33-316AA/HELD1.3 (bispecific antibody)
chain 1: B1 heavy with V376A, D419A
chain 2: B1 light
- DO11.10 EC50 [4]: 0.563 nM
- koff [5]: 0.000566 s⁻¹

B21: FS17-33-455AA/HELD1.3 (bispecific antibody)
chain 1: B5 chain 1 with S357Y, H416Q
chain 2: B1 light
- koff [6]: 0.000343 s⁻¹

B22: FS17-33-462AA/HELD1.3 (bispecific antibody)
chain 1: B5 chain 1 with H416Q, D419A
chain 2: B1 light
- koff [6]: 0.000899 s⁻¹

B23: FS17-33-458AA/HELD1.3 (bispecific antibody)
chain 1: B5 chain 1 with N412H, H416Q
chain 2: B1 light
- koff [6]: 0.000456 s⁻¹

B24: FS17-33-296AA/HelD1.3 mock mAb^2 (bispecific antibody, human IgG1, kappa, L234A L235A)
heavy: B1 heavy with L417V
light: B1 light
notes: also called F17-33-296AA/HelD1.3; F17-33-296AA/HELD1.3
- DO11.10 T cell activation assay EC50 [1]: 1.12 nM
- Kd [2]: 2.7 nM
- Kd [3]: 2 nM

B25: anti-PD-L1 mAb YW243.55.S1 (antibody, V domains shown)
VH: not shown
VL: DIQMTQSPSSLSASVGDRVTITCRASQDVSTAVAWYQQKPGKAPKLLIYSASFLYSGVPSRFSGSGSGTDFTLTISSLQPEDFATYYCQQYLFTPPTFGQGTKVEIKR
- DO11.10 T cell activation assay EC50 [1]: 0.257 nM

B26: Fcab FS17-33-288 with LALA mutation (designed binder)
chain: TCPPCPAPEAAGGPSVFLFPPKPKDTLMISRTPEVTCVVVDVSHEDPEVKFNWYVDGVEVHNAKTKPREEQYNSTYRVVSVLTVLHQDWLNGKEYKCKVSNKALPAPIEKTISKAKGQPREPQVYTLPPSRDESGYWVSLTCLVKGFYPSDIVVEWESNGEPQYWAKTTPPVLDSDGSFFLYSKLTVSNWRWQIDDFSCSVMHEALHNHYTQKSLSLSPGK
- DO11.10 T cell activation assay EC50 [1]: 0.137 nM

B27: Fcab FS17-33-289 with LALA mutation (designed binder)
chain: B26 chain with I194L
- DO11.10 T cell activation assay EC50 [1]: 0.228 nM

B28: Fcab FS17-33-334 with LALA mutation (designed binder)
chain: B26 chain with V153A, I194L
- DO11.10 T cell activation assay EC50 [1]: 0.381 nM

B29: Fcab FS17-33-296 with LALA mutation (designed binder)
chain: B26 chain with I194V
- DO11.10 T cell activation assay EC50 [1]: 0.166 nM

Next, values leading:

- DO11.10 EC50 [4]: 0.37 nM
- koff [5]: 0.000372 s⁻¹
B2: FS17-33-163AA/HELD1.3 (bispecific antibody)
chain 1: B1 heavy with S357F, V376A
chain 2: B1 light

- DO11.10 EC50 [4]: 0.434 nM
- koff [5]: 0.000377 s⁻¹
B4: FS17-33-266AA/HELD1.3 (bispecific antibody)
chain 1: B1 heavy with V376A, Q416R
chain 2: B1 light

- koff [6]: 0.000269 s⁻¹
B7: FS17-33-454AA/HELD1.3 (bispecific antibody)
chain 1: B5 chain 1 with S357F, H416Q
chain 2: B1 light

- DO11.10 EC50 [4]: 0.453 nM
- koff [5]: 0.000578 s⁻¹
B8: FS17-33-161AA/HELD1.3 (bispecific antibody)
chain 1: B1 heavy with S357L, V376A
chain 2: B1 light

- koff [6]: 0.000359 s⁻¹
B10: FS17-33-461AA/HELD1.3 (bispecific antibody)
chain 1: B5 chain 1 with H416S
chain 2: B1 light

- DO11.10 EC50 [4]: 0.263 nM
- koff [5]: 0.000427 s⁻¹
B11: FS17-33-159AA/HELD1.3 (bispecific antibody)
chain 1: B1 heavy with S357H, V376A
chain 2: B1 light

- DO11.10 EC50 [4]: 0.238 nM
- koff [5]: 0.000523 s⁻¹
B12: FS17-33-166AA/HELD1.3 (bispecific antibody)
chain 1: B1 heavy with S357Y, V376A
chain 2: B1 light

- DO11.10 EC50 [4]: 0.254 nM
- koff [5]: 0.000518 s⁻¹
B13: FS17-33-271AA/HELD1.3 (bispecific antibody)
chain 1: B1 heavy with V376A, Q416H
chain 2: B1 light

- DO11.10 EC50 [4]: 0.561 nM
- koff [5]: 0.000709 s⁻¹
B14: FS17-33-235AA/HELD1.3 (bispecific antibody)
chain 1: B1 heavy with V376A, N412A
chain 2: B1 light

- koff [6]: 0.000303 s⁻¹
B16: FS17-33-453AA/HELD1.3 (bispecific antibody)
chain 1: B5 chain 1 with S357L, H416Q
chain 2: B1 light

- DO11.10 EC50 [4]: 0.319 nM
- koff [5]: 0.000415 s⁻¹
B18: FS17-33-277AA/HELD1.3 (bispecific antibody)
chain 1: B1 heavy with V376A, Q416S
chain 2: B1 light

- DO11.10 EC50 [4]: 0.304 nM
- koff [5]: 0.000592 s⁻¹
B19: FS17-33-241AA/HELD1.3 (bispecific antibody)
chain 1: B1 heavy with V376A, N412H
chain 2: B1 light
